{"source": "patent US20170072013A1", "about": "(MEDINCELL, published 2017)", "binders": {"B1": {"name": "Analog 14 (SEQ ID NO:15), Ac-rlawsvaipaswrplpa-NH2 (peptide)", "peptide": "Ac-[dR][dL][dA][dW][dS][dV][dA][dI][dP][dA][dS][dW][dR][dP][dL][dP][dA]-NH2", "SMILES": "CC[C@@H](C)[C@@H](NC(=O)[C@@H](C)NC(=O)[C@H](NC(=O)[C@@H](CO)NC(=O)[C@@H](Cc1c[nH]c2ccccc12)NC(=O)[C@@H](C)NC(=O)[C@@H](CC(C)C)NC(=O)[C@@H](CCCNC(=N)N)NC(C)=O)C(C)C)C(=O)N1CCC[C@@H]1C(=O)N[C@H](C)C(=O)N[C@H](CO)C(=O)N[C@H](Cc1c[nH]c2ccccc12)C(=O)N[C@H](CCCNC(=N)N)C(=O)N1CCC[C@@H]1C(=O)N[C@H](CC(C)C)C(=O)N1CCC[C@@H]1C(=O)N[C@H](C)C(N)=O"}, "B2": {"name": "Analog 3 (SEQ ID NO:4), Ac-rlGwsvGipGswrplpa-NH2 (peptide)", "peptide": "Ac-[dR][dL]G[dW][dS][dV]G[dI][dP]G[dS][dW][dR][dP][dL][dP][dA]-NH2", "SMILES": "CC[C@@H](C)[C@@H](NC(=O)CNC(=O)[C@H](NC(=O)[C@@H](CO)NC(=O)[C@@H](Cc1c[nH]c2ccccc12)NC(=O)CNC(=O)[C@@H](CC(C)C)NC(=O)[C@@H](CCCNC(=N)N)NC(C)=O)C(C)C)C(=O)N1CCC[C@@H]1C(=O)NCC(=O)N[C@H](CO)C(=O)N[C@H](Cc1c[nH]c2ccccc12)C(=O)N[C@H](CCCNC(=N)N)C(=O)N1CCC[C@@H]1C(=O)N[C@H](CC(C)C)C(=O)N1CCC[C@@H]1C(=O)N[C@H](C)C(N)=O"}, "B3": {"name": "Analog 8 (SEQ ID NO:9), Ac-rlGwsvGipGswrplpaappppadlrdq-NH2 (peptide)", "peptide": "Ac-[dR][dL]G[dW][dS][dV]G[dI][dP]G[dS][dW][dR][dP][dL][dP][dA][dA][dP][dP][dP][dP][dA][dD][dL][dR][dD][dQ]-NH2", "SMILES": "CC[C@@H](C)[C@@H](NC(=O)CNC(=O)[C@H](NC(=O)[C@@H](CO)NC(=O)[C@@H](Cc1c[nH]c2ccccc12)NC(=O)CNC(=O)[C@@H](CC(C)C)NC(=O)[C@@H](CCCNC(=N)N)NC(C)=O)C(C)C)C(=O)N1CCC[C@@H]1C(=O)NCC(=O)N[C@H](CO)C(=O)N[C@H](Cc1c[nH]c2ccccc12)C(=O)N[C@H](CCCNC(=N)N)C(=O)N1CCC[C@@H]1C(=O)N[C@H](CC(C)C)C(=O)N1CCC[C@@H]1C(=O)N[C@H](C)C(=O)N[C@H](C)C(=O)N1CCC[C@@H]1C(=O)N1CCC[C@@H]1C(=O)N1CCC[C@@H]1C(=O)N1CCC[C@@H]1C(=O)N[C@H](C)C(=O)N[C@H](CC(=O)O)C(=O)N[C@H](CC(C)C)C(=O)N[C@H](CCCNC(=N)N)C(=O)N[C@H](CC(=O)O)C(=O)N[C@H](CCC(N)=O)C(N)=O"}, "B4": {"name": "Analog 16 (SEQ ID NO:21), c(rlGwsvGipGswrplparlGwsvGipGswrplpa) (peptide)", "peptide": "cyclo([dR][dL]G[dW][dS][dV]G[dI][dP]G[dS][dW][dR][dP][dL][dP][dA][dR][dL]G[dW][dS][dV]G[dI][dP]G[dS][dW][dR][dP][dL][dP][dA])", "SMILES": "CC[C@@H](C)[C@H]1NC(=O)CNC(=O)[C@@H](C(C)C)NC(=O)[C@@H](CO)NC(=O)[C@@H](Cc2c[nH]c3ccccc23)NC(=O)CNC(=O)[C@@H](CC(C)C)NC(=O)[C@@H](CCCNC(=N)N)NC(=O)[C@@H](C)NC(=O)[C@H]2CCCN2C(=O)[C@@H](CC(C)C)NC(=O)[C@H]2CCCN2C(=O)[C@@H](CCCNC(=N)N)NC(=O)[C@@H](Cc2c[nH]c3ccccc23)NC(=O)[C@@H](CO)NC(=O)CNC(=O)[C@H]2CCCN2C(=O)[C@@H]([C@H](C)CC)NC(=O)CNC(=O)[C@@H](C(C)C)NC(=O)[C@@H](CO)NC(=O)[C@@H](Cc2c[nH]c3ccccc23)NC(=O)CNC(=O)[C@@H](CC(C)C)NC(=O)[C@@H](CCCNC(=N)N)NC(=O)[C@@H](C)NC(=O)[C@H]2CCCN2C(=O)[C@@H](CC(C)C)NC(=O)[C@H]2CCCN2C(=O)[C@@H](CCCNC(=N)N)NC(=O)[C@@H](Cc2c[nH]c3ccccc23)NC(=O)[C@@H](CO)NC(=O)CNC(=O)[C@H]2CCCN2C1=O"}, "B5": {"name": "Analog 15 (SEQ ID NO:20), c(rlGwsvGipGswrplpa) (peptide)", "peptide": "cyclo([dR][dL]G[dW][dS][dV]G[dI][dP]G[dS][dW][dR][dP][dL][dP][dA])", "SMILES": "CC[C@@H](C)[C@H]1NC(=O)CNC(=O)[C@@H](C(C)C)NC(=O)[C@@H](CO)NC(=O)[C@@H](Cc2c[nH]c3ccccc23)NC(=O)CNC(=O)[C@@H](CC(C)C)NC(=O)[C@@H](CCCNC(=N)N)NC(=O)[C@@H](C)NC(=O)[C@H]2CCCN2C(=O)[C@@H](CC(C)C)NC(=O)[C@H]2CCCN2C(=O)[C@@H](CCCNC(=N)N)NC(=O)[C@@H](Cc2c[nH]c3ccccc23)NC(=O)[C@@H](CO)NC(=O)CNC(=O)[C@H]2CCCN2C1=O"}}, "note": "Square brackets hold non-standard residues; d marks the D form."}
{"biological_target": "T1, human TREK-1 potassium channel expressed in the h-TREK-1/HEK cell line (human, UniProt O95069 1-426)", "T1 sequence (looked up)": "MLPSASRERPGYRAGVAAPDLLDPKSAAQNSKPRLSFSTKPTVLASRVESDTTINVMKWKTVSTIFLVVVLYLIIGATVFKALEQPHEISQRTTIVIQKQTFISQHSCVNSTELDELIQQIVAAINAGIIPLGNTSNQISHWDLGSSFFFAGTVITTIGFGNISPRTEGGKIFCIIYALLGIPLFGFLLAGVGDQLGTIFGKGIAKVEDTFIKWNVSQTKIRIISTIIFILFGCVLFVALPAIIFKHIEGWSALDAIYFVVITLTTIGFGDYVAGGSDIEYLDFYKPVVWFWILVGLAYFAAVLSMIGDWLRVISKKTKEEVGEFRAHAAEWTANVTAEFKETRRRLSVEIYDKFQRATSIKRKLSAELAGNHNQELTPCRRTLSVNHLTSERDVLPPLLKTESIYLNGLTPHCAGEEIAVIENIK", "test": "cell-based or functional assay", "units": {"IC50 of TREK-1 current inhibition (dose-response, whole cell patch clamp, 0 mV)": "nM", "fold higher affinity for TREK-1 channels than spadin, inferred from the IC50 of current inhibition": "fold"}}
{"binder": "B1", "IC50 of TREK-1 current inhibition (dose-response, whole cell patch clamp, 0 mV)": 0.004}
{"binder": "B2", "IC50 of TREK-1 current inhibition (dose-response, whole cell patch clamp, 0 mV)": 11.5, "fold higher affinity for TREK-1 channels than spadin, inferred from the IC50 of current inhibition": 6}
{"binder": "B3", "IC50 of TREK-1 current inhibition (dose-response, whole cell patch clamp, 0 mV)": 9.95, "fold higher affinity for TREK-1 channels than spadin, inferred from the IC50 of current inhibition": 6}
{"binder": "B4", "IC50 of TREK-1 current inhibition (dose-response, whole cell patch clamp, 0 mV)": 0.001}
{"binder": "Ac-APLPRWSAPIAVSWALR-NH2", "note": "[Analog 13 (SEQ ID NO:14), Ac-APLPRWSAPIAVSWALR-NH2]", "IC50 of TREK-1 current inhibition (dose-response, whole cell patch clamp, 0 mV)": 0.04}
{"binder": "Ac-APLPRWSGPIGVSWGLR-NH2", "note": "[Analog 2 (SEQ ID NO:3), Ac-APLPRWSGPIGVSWGLR-NH2]", "IC50 of TREK-1 current inhibition (dose-response, whole cell patch clamp, 0 mV)": 60}
{"binder": "B5", "IC50 of TREK-1 current inhibition (dose-response, whole cell patch clamp, 0 mV)": 0.04}
